From patent publication US8487074B2, “Modulation of lipid rafts” (Lantmannen AS-Faktor AB, priority 2006, dated 2013)
No end group written: not given here.

Experiments:
[1] = test system: injured skin and cartilage; parameters: species or system rats; settings: rat, in vivo
Protocol: In an experiment it was investigated whether the administration of AF-16 affected the healing process of injured skin and cartilage, using freeze-thaw injury to a rat ear as a model system. […] In addition 1 mg AF-16 was injected intramuscularly just after the implantation of the pump. Thereafter, a freeze-thaw injury was applied by compressing the ear in a standardized manner with the aid of a Pean's forceps, chilled in liquid nitrogen. For comparison, additional rats were treated in the same way in parallel were treated with the vehicle, PBS with 15% ethanol, only and no peptide. Additionally, normal rats, which had not been exposed to any freeze-thaw injury, were used for reference as were non-injured rats having pumps with AF-16 implanted. […] On either side bordering the injured elastic cartilage in the ear there was a formation of new hyaline cartilage. […] The amount of collagen and density of inflammatory cells were reduced in the AF-16 treated animals as compared to those having had the vehicle.

[2] = test system: pulmonary hypertension; assay: Crotaline (monocrotaline) induced pulmonary hypertension in rats; type: in vivo, Sprague-Dawley rats; settings: crotaline 60 mg/kg ip; minipump infusion; assessed 18 days later; vs untreated normal controls
Protocol: Adolescent and adult rats, with a body weight of 150-300 g and of either sex, were treated experimentally to induce pulmonary hypertension and reactive alterations in the lungs. Pulmonary hypertension (PH) is defined as having a pressure in excess of the normal pulmonary artery pressure, […], usually in the range of 30-40 mm Hg. It is a progressive disease with high morbidity and mortality in humans as well as in animals. Experimental models enable investigation of the initiating mechanisms. A single treatment of rats with monocrotaline is an established approach for the induction of PH (Cf. Mathew et al., 2004). […]
The rats were anaesthetized 18 days later, and their body weights determined. […] The pressure in the right heart ventricle was assessed with the aid of a fiber optic miniature transducer system (Samba System 3200 & Samba Preclin 420 sensor; Samba Sensors AB, V. Frolunda, Sweden), inserted through the right jugular vein. […] In contrast, rats treated with crotaline (single ip injection; 60 mg/kg body weight; crotaline dissolved in PBS) and the vehicle delivered by a Alzet pump had for 18 days an pulmonary artery pressure in excess of 30 mm Hg and a hypertrophy of the right ventricle, as assessed by comparing its wet weight to that of the left ventricle and with the weight of corresponding structures of non-treated, normal rats. […]

[3] = test system: injured skin and periost; assay: Healing of calvarial skin wound and periost in rabbits; type: in vivo, New Zeeland albino rabbits; settings: vs vehicle
Protocol: Adult rabbits were investigated with regard to whether the administration of AF-16 affected the healing process of injured skin and periost. […] The rabbits had either AF-16 or the vehicle injected intravenously in a marginal ear vein. The dose of AF-16 was up to 5 mg per kg body weight, twice daily. The calvarial skin wound and the injection sites in the ear were investigated macroscopically after a week. Then, specimens were dissected from both areas and prepared by fixation, embedding, sectioning and staining for light microscopic examination.

[4] = test system: aquaporins; assay: Effects of AF treatment on aquaporins after trauma, infections and other pathological conditions; type: in vivo; settings: topical or systemic administration
Description: Aquaporins are a family of proteins, integrated in membranes, and expressed in all living cells and organisms. The major function of aquaporins is to control the water flow into and out of cells, i.e. between the cytoplasm of cells and the extracellular environment. Each type of cells, tissues and organs have their specific set of aquaporins with characteristic distribution patterns. Functional aquaporins are preferentially clustered in lipid rafts and caveolae, while subunits and dissociated aquaporin complexes may be demonstrable outside these membrane constituents. […] Further, at brain and spinal cord infections, e.g. encephalitis, the patterns of distribution and intensity of these two aquaporins became altered, as disclosed be immunohistochemistry and immunochemistry. The interaction between e.g. neurons and supporting glial cells and vascular structures seems to be intricate and complex, but important.
Experiments are performed mapping in more detail regarding effects of trauma, infections and other pathological conditions. […] Effects are characterized quantitatively and qualitatively and the importance of effects on the structure and functions of the different types of aquaporins in a body. […]

Row | Molecule | structures in the ear of non-injured rats [1] | general appearance and body weight [2] | frequency of caveolae [3] | prevalence, distribution and activity of aquaporins and ion channel complexes [4]
1 | VCHSKTRSNPENNVGL [AF-16, VCHSKTRSNPENNVGL] | did not alter the structures in the ear |  |  | 
2 | AF: antisecretory factor, a 41 kDa protein comprising 382 amino acids; the term also covers homologues, derivatives and fragments (protein, listed as Homo sapiens) MVLESTMVCVDNSEYMRNGDFLPTRLQAQQDAVNIVCHSKTRSNPENNVGLITLANDCEVLTTLTPDTGRILSKLHTVQPKGKITFCTGIRVAHLALKHRQGKNHKMRIIAFVGSPVEDNEKDLVKLAKRLKKEKVNVDIINFGEEEVNTEKLTAFVNTLNGKDGTGSHLVTVPPGPSLADALISSPILAGEGGAMLGLGASDFEFGVDPSADPELALALRVSMEEQRHAGGGARRAARASAAEAGIATTGTEDSDDALLKMTISQQEFGRTGLPDLSSMTEEEQIAYAMQMSLQGAEFGQAESADIDASSAMDTSEPAKEEDDYDVMQDPEFLQSVLENLPGVDPNNEAIRNAMGSLPPRPPRTARRTRRRKTRSETGGKG |  | appeared healthy and had almost the same weight and appearance as the controls | more normal | great impact in monitoring and even normalizing
